What is called Kd is the constant that tells how readily two partners part at equilibrium. A high value points to a looser complex.

Data set [1] concerns the target T1, NS3 of SEQ ID NO: 3 (NS3 domain of Hepatitis C virus genotype 4a fused to the T7 tag at the N-terminus and … (Hepatitis C virus (genotype 4a))).
T1 construct: also called HCV NS3 genotype 4a
T1 chain: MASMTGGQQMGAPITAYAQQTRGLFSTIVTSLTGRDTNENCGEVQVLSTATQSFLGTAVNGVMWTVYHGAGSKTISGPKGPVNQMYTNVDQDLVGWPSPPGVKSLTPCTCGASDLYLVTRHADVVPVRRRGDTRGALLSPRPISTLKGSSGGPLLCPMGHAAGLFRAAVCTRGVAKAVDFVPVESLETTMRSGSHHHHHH
Kind of data set: fluorescence anisotropy, 0.1 µM labelled peptide titrated with NS3. A general note: Fluorescence polarisation rises when a labelled molecule tumbles more slowly, as on binding a larger partner.

Data set [2] deals with T2, Pep-15 of SEQ ID NO: 20 (KKGSx[…]).
T2 chain: KKGSGVIVGRIVLSGKK

The target of data set [3] is T1, NS3 of SEQ ID NO: 3 (NS3 domain of …). Kind of data set: differential static light scattering (DSLS), NS3:peptide 1:2, 2 h at room temperature.
The target is the same in data set [4]. Briefly: differential static light scattering (DSLS).
For data set [5] the target is unchanged. Kind of data set: competition fluorescence anisotropy against 0.1 µM labelled NS4A peptide with 1.8 µM NS3.

Entries after “also recorded” stand apart in the source; their conditions may differ. Where no end group is shown, it is not given here. [ ]: non-standard residue; d: D form. The star is where a group is joined. FITC = O=C1OC2(c3ccc(O)cc3Oc3cc(O)ccc32)c2ccc(NC(=S)*)cc21; hI = homoisoleucine, (2S)-2-amino-4-methylhexanoic acid; Chg = N[C@H](C(=O)O)C1CCCCC1; Ahx = NCCCCCC(=O)O

B1: isothiocyanate-labeled NS4A peptide of SEQ ID NO: 25 (FITC-NS4A) (peptide)
peptide: {FITC}-[Ahx]KKGSVVIVGRIVLSGKK
notes: also called fluorescein isothiocyanate-NS4A
B1 showed a Kd in data set [1] of 169 nM.

B2: NS3 of SEQ ID NO: 3 (NS3 domain of Hepatitis C virus genotype 4a fused to the T7 tag at the N-terminus and 6-His tag at the C-terminus) (protein)
chain: MASMTGGQQMGAPITAYAQQTRGLFSTIVTSLTGRDTNENCGEVQVLSTATQSFLGTAVNGVMWTVYHGAGSKTISGPKGPVNQMYTNVDQDLVGWPSPPGVKSLTPCTCGASDLYLVTRHADVVPVRRRGDTRGALLSPRPISTLKGSSGGPLLCPMGHAAGLFRAAVCTRGVAKAVDFVPVESLETTMRSGSHHHHHH
On to B2, for which the “protease activity (cleavage of 5FAM-substrate of SEQ ID NO: 22, fluorescence at 520 nm)” value in data set [2] was “maintained 69.7% of the enzyme activity during the first 60 minutes; also recorded: After 60 minutes, it was observed that the activity of the enzyme completely disappeared”.

B3: NS4A peptide of SEQ ID NO: 4 (KK-[…]-KK, comprising the native NS4A21-33 of SEQ ID NO: 2) (peptide)
peptide: KKGSVVIVGRIVLSGKK
notes: Synthetic peptide; the KK at each end is not part of NS4A
B3 displayed a ΔTagg in data set [3] of 2.83 ° C. Take KKGSWVIVGRIVLSGKK [Pep-12 of SEQ ID NO: 17 (KKGSWVIVGRIVLSGKK)]: in data set [4], the binding result was “binds”. The same measure, in the same setting: the value for KKGS[hI]VIVGRIVLSGKK [Pep-14 of SEQ ID NO: 19 (KKGSh[…])] was “binds”. For the molecule KKGS[Chg]VIVGRIVLSGKK [Pep-15 of SEQ ID NO: 20 (KKGSx[…])], binding in data set [5] was put at a Kd of 70 nM. Also, the Tagg shift in data set [4] is 3.9 ° C. In the case of KKGSFVIVGRIVLSGKK [Pep-11 of SEQ ID NO: 16 (KKGSFVIVGRIVLSGKK)], the binding result in data set [4] is “binds”. On the same count and under the same terms, the value for KKGSAVIVGRIVLSGKK [Pep-13 of SEQ ID NO: 18 (KKGSAVIVGRIVLSGKK)] was “binds”.

Source of the values: patent publication US20200308228A1 (KING ABDULAZIZ UNIVERSITY, published 2020).
